Laboratory results published in the domain aggregation screens of Martell et al. (2025).

Experiment: soluble fraction after stress (log2 fold change); higher = more stays soluble; pooled small domains, quantitative proteomics
Conditions: stress: pH 4
Method in brief: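 Following acid stress at pH 4, the amount of each small protein domain still soluble was measured in pooled custom libraries by high-throughput quantitative proteomics. Its fold change, on a log2 scale, is higher when more of the domain stayed soluble. This fold change is taken as a measure of aggregation propensity.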

| Sequence | soluble fraction (log2) |
| --- | --- |
| HMRLDPENFYIRAVTYYRNGDWQRALSQLDEAIKLGTAIEYPALQARIYLEQGMRDEFIAASEK | -1.42 |
| HMRLDVALRGVLLDGDPTQSRAFVLVSGTTSTYRLGETVQSAELVAINADTITLRTETGLHVIGFDGLI | -2.11 |
| HMRLEYLVDVEEISIKEYLMLLGLSRRLARKIKLYGKMYINHQEAFNYHLVKKGDLLTIEFDE | -2.21 |
| HMRLIDVFELSPKNRTVLQLYYYEGYSVTEISKILKISVNGVTSRLSRARSKLKLEMEAAENE | -0.0525 |
| HMRLMLITPTEFDEAAEIADNLKDRRAVLMNVEKTDNETARRLIDFLSGVVYALGGKIMRISAQAYVLT | -0.228 |
| HMRLPNGYGGVTKLSGRRRKPYMVRKTIGWHIDEKTDKKVQDYVVIGYAATKSEALQMLADYNNNPFDV | 0.0101 |
| HMRLSVVDLQDSLRGLEYPAGKGDLINHAREHNASADVIAVLEQFSERTYRSAADVGEEFGRV | -0.166 |
| HMRLTIAQLSEKTGVPERTIRYYIDRGLVPSAHGERRGAWYDTVHLEPLLRIQQWREAGLSLEAIADLLR | -1.17 |
| HMRMLLEERLDEIVKIVNERGSISNQELVKMFGASESTIRRDITTLANDNRVIRVHGGAMSVVS | -0.387 |
| HMRMTLKNKVEDIVHILRKDKQTSLSAILGDNTDRIQTIVVFLAILELVKQHLIKTDQNANFGDINLFPED | 0.134 |
| HMRNLFWTEAQNAQNELNAMRINALTQSIRRIEPNFRGIPSLRDPNRPIPNEEVRDYENYLNRILP | 0.126 |
| HMRNMRKLWIARINAAARMNDISYSKLMHGLKLANVEINRKMLSEMAIDDPKSFTALVETAKKALNG | 0.303 |
| HMRNPLYAQVADYVMQQIAAGTYRPHQAIPTEWQLAKKLEVSQGTVRKGLDELVFKQILYRQQGVGTFVAD | 0.0353 |
| HMRPAAELGLPHAPKHFIQYLTEDDRPQVLKDVDYEGGMGVSIGRLREDSIFDWKFVGLAHNTL | 0.0686 |
| HMRPADTAAMLKYLSSGAVKGIGGALAGRIIEAFGDESIKVIEEDPARLATVKGITLKKAKEISEEMQRVN | 0.0199 |
| HMRPEFVVALSGADLGKLHRLYELGEVLSREDDAEGVTHAVLRVPDKHEHAFHAEFPQARPM | -0.19 |
| HMRPIDEVFGFFSRPENLTVITPSNLHFNILTPRPLEMKQGAVIDYTIKIFKVPIHWRTLITTYDPPFKFV | -0.399 |

| Sequence | soluble fraction (log2) |
| --- | --- |
| HMRPILTLEEAKAKALAHAGLKADQVTFTEAKLDWDDGKQVYDIEFYTADFKEYDYEIDAKTGEVLEVDY | 0.0375 |
| HMRPKAIFVDVDDTLVRSVGQTRIPMPAVIAHIRRLHDAGHQLYLWSSGGADYARASAEELGIGQYFQAFL | -0.32 |
| HMRPRWTEQEVERAKAIKMIYPNAYRLESSDVFVQVWSKEEILLAHVEVDMFPSLRPGQPVELDEIIG | -0.114 |
| HMRPTAWDQISDWLDRHGSIANADVVRIAGLDTLKASKLLTTWREQGLLEPLPGRGKRNMAYVRAI | 0.12 |
| HMRPTVNETQIREVFRSILGREVDPEGLRHYLGQAAKGWSIDQIRADVNNSQEAHQRRAELARQAEELK | -0.217 |
| HMRQDEKTLLYWIAGHLKREGRQITERSARHLVEQVGTDMENLSREMEKLIAYTMGRTEITGQDIDDI | -1.21 |
| HMRQEIIEDSRKLLEESLKRYDLTYQEFIDTLKSKNMNVESTLINIIKNQSSLDLVLRNLGLIAP | -0.869 |
| HMRQISDPTALASMVDKVIEDNPSAVADYRRGESKALGFLIGRVMQSSGGKANPKMIRGLLVKNLES | 0.371 |
| HMRQMIIIMQKQAAASSVAAVVEFIRSKGLREHISPGAERTIIGAVGDERVFLPQELESLPQVERAIRVL | -0.85 |
| HMRQPAAVEYSTFLDWVHASQVERVVFEGDTIRGVRVTGEGFVTYSPETDNTALIGELKKSRVQISATAP | 0.311 |
| HMRQQAFWALVPEERDVLDETGAPLFRIGPTAWALVIEDRGEVFVVRDEDGRVGYLHEVDGVTR | -1.94 |
| HMRQQLAEILQKAVDNLPEAQRLVWLLRDKSDMTFKEIAEDLQLTEANVRVLLHRARLKLLAVINQYEE | -0.115 |
| HMRQYKEMPYRLFLIHLGKGLVDEVELSDKAKLTGKLKNGKIFITDNPRTENFKEQLLLHDVKVKEG | -0.133 |
| HMRQYTPEQLETAVLVLEEVRQGRRLDRALRSHPMPDGRLIAKHVLVAAYRKLVAEGTWKEDPEFLSRIRM | 0.116 |
| HMRRADRLLQLIQILRRHRRPVTGDVMARELEVSLRTVYRDIATLTIEGVPIRGEAGVGYVLGEGY | 0.211 |
| HMRRDEDLAHGRELLEKELRKQGLEVSENLKQDKLLEGAKRLGFLEAEDLVVAVGSGKVSAGMAVGRIIG | -0.411 |
| HMRREKVLIKLAENLASKVLRTKKSIELEPMTPYERKVIHTTIENISGVKSWSEGENLQRHLIVALDE | 0.188 |
